Here are results for 1 molecule from patent publication US20110110945A1, “Immunoglobulin Fusion Proteins and Methods of Making” (TransTech Pharma, Inc., priority 2007, published 2011).

For data set [1], the system named is S100b/RAGE-induced production of TNF-α in THP-1 cells. Kind of data set: Inhibition of S100b/RAGE-induced production of TNF-α in THP-1 cells. The class given is cell-based. The following applies: 10 μg protein, FIG. 10. An excerpt:
One embodiment of a use of a RAGE fusion protein of the present invention to modulate expression of the cellular effector TNF-α is shown in FIG. 10. THP-1 myeloid cells may be cultured in RPMI-1640 media supplemented with 10% FBS and induced to secrete TNF-α via stimulation of RAGE with S100b. When such stimulation occurs in the presence of a RAGE fusion protein of the invention, induction of TNF-α by S100b binding to RAGE may be inhibited.
Previous work has shown that the myeloid THP-1 cells may secrete TNF-α in response to RAGE ligands. In this assay, THP-1 cells were cultured in RPMI-1640 media supplemented with 10% FBS using a protocol provided by ATCC. […] The amount of TNF-α secreted by the THP-1 cells was measured 24 hours after the addition of the proteins to the cell culture using a commercially available ELISA kit for TNF-α (R&D Systems, Minneapolis, Minn.).

In data set [2] the test system is Zucker diabetic rats, balloon injury of left common carotid artery. Kind of data set: Diabetic rat model of restenosis (balloon injury of left common carotid artery). The following applies: for Intimal area / Medial area: IP, 21 days, mean±SD. The class given is in vivo. The procedure: For example, fusion proteins of the present invention comprising a RAGE ligand binding site have been used in the treatment of diabetes related pathology. […] Use of the RAGE fusion proteins in the treatment of diabetes related pathology is illustrated in Table 1.
In these experiments, balloon injury of left common carotid artery was performed in Zucker diabetic and nondiabetic rats using standard procedure. […] A maintenance dose was delivered every other day until day 7 after injury (i.e., at day 1, 3, 5 and 7 after injury). The maintenance dose was high=1 mg/animal for one group, or low=0.3 mg/animal for the second group. To measure vascular smooth muscle cell (VSMC) proliferation, animals were sacrificed at 4 days and 21 days after injury.
For the measurement of cell proliferation, 4 day animals received intraperitoneal injection of bromodeoxyuridine (BrDdU) 50 mg/kg at 18, 12, and 2 hours before euthanasia. After sacrifice, the entire left and right carotid arteries were harvested. Specimens were stored in Histochoice for at least 24 hours before embedding. Assessment of VSMC proliferation was performed using mouse anti-BrdU monoclonal antibody. A fluorescence labeled goat anti-mouse secondary antibody was applied. The number of BrdU-positive nuclei per section were counted by two observers blinded to the treatment regimens.
The remaining rats were sacrificed at 21 days for morphometric analysis. Morphometric analyses were performed by an observer blinded to the study groups, using computerized digital microscopic planimetry software Image-Pro Plus on serial sections, ([…]) carotid arteries stained by Van Gieson staining All data were expressed as mean±SD. Statistical analysis was performed with use of SPSS software. Continuous variables were compared using unpaired t tests. A values of P≦0.05 was considered to be statistically significant.

For data set [3], the target named is T1, amyloid-beta (Amyloid Beta (1-40)) (Homo sapiens, UniProt P05067).
T1 construct: Amyloid Beta (1-40) from Biosource; purchased Biosource
T1 sequence (P05067 672-711 limits assumed): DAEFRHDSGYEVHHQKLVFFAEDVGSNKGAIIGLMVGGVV
Nature of the data set: In vitro ligand binding assay (ELISA), immobilized amyloid-beta. The following applies: ligand 5 micrograms per well; dilutions of initial fusion protein solution; FIG. 7. The procedure: For example, the fusion protein may be used in a binding assay to identify potential ligands that bind to the non-immunoglobulin protein. In one example embodiment of such a binding assay, a known ligand may coated onto a solid substrate (e.g., Maxisorb plates) at a biologically relevant concentration (e.g., about 5 micrograms per well), where each well contains a total volume of about 100 microliters (μL). The plates may be incubated at 4° C. overnight to allow the ligand to bind to the substrate. Alternatively, shorter incubation periods at higher temperature (e.g., room temperature) may be used. After a period of time to allow for the ligand to bind to the substrate, the assay wells may be aspirated and a blocking buffer (e.g., 1% BSA in 50 mM imidizole buffer, pH 7.2) may be added to block nonspecific binding. […] The fusion protein bound to the immobilized ligand may be detected in a variety of ways. […] The bound complex may be detected by adding a substrate for the secondary antibody complex, e.g., the alkaline phosphatase substrate, para-nitrophenylphosphate (PNPP), and measuring conversion of PNPP to para-nitrophenol (PNP) as an increase in absorbance at 405 nm. […] In the absence of ligand (i.e., coating with only BSA) there was no increase in absorbance. The binding assay of the present invention may be used to quantify ligand binding. […]

For data set [4], the system named is Fc receptor.
Procedure: Fc receptor activation was measured by measuring TNF-α secretion from THP-1 cells that express the Fc receptor. […] Fc stimulation results in TNF-α secretion. The amount of TNF-α was measured by an Enzyme Linked Immunoabsorbent Assay (ELISA).
Thus, in this assay, the myeloid cell line, THP-1 (ATTC #TIB-202) was maintained in RPMI-1640 media supplemented with 10% fetal bovine serum per ATCC instructions. […] The amount of TNF-alpha secreted by the THP-1 cells was measured in supernatants collected from 24 hours cultures of cells in the treated wells using a commercially available TNF ELISA kit (R&D Systems, Minneapolis, Minn. #DTA00C) per instructions.
[5] abbreviates: High dose 1.0 mg/animal qod × 4, loading dose 3 mg/animal.
Setting [6] is: Low dose 0.3 mg/animal qod × 4, loading dose 3 mg/animal.

Entries after “also recorded” stand apart in the source; their conditions may differ.

B1: TTP-4000: RAGE fusion protein: V and C1 domains of human RAGE (amino acids 1-251) linked to hinge-less CH2 and CH3 of human IgG1; SEQ ID NO: 16/18 (protein)
chain 1: MAAGTAVGAWVLVLSLWGAVVGAQNITARIGEPLVLKCKGAPKKPPQRLEWKLNTGRTEAWKVLSPQGGGPWDSVARVLPNGSLFLPAVGIQDEGIFRCQAMNRNGKETKSNYRVRVYQIPGKPEIVDSASELTAGVPNKVGTCVSEGSYPAGTLSWHLDGKPLVPNEKGVSVKEQTRRHPETGLFTLQSELMVTPARGGDPRPTFSCSFSPGLPRHRALRTAPIQPRVWEPVPLEEVQLVVEPEGGAVAPPSVFLFPPKPKDTLMISRTPEVTCVVVDVSHEDPEVKFNWYVDGVEVHNAKTKPREEQYNSTYRVVSVLTVLHQDWLNGKEYKCKVSNKALPAPIEKTISKAKGQPREPQVYTLPPSRDELTKNQVSLTCLVKGFYPSDIAVEWESNGQPENNYKTTPPVLDSDGSFFLYSKLTVDKSRWQQGNVFSCSVMHEALHNHYTQKSLSLSPGK
chain 2: ENITARIGEPLVLKCKGAPKKPPQRLEWKLNTGRTEAWKVLSPQGGGPWDSVARVLPNGSLFLPAVGIQDEGIFRCQAMNRNGKETKSNYRVRVYQIPGKPEIVDSASELTAGVPNKVGTCVSEGSYPAGTLSWHLDGKPLVPNEKGVSVKEQTRRHPETGLFTLQSELMVTPARGGDPRPTFSCSFSPGLPRHRALRTAPIQPRVWEPVPLEEVQLVVEPEGGAVAPPSVFLFPPKPKDTLMISRTPEVTCVVVDVSHEDPEVKFNWYVDGVEVHNAKTKPREEQYNSTYRVVSVLTVLHQDWLNGKEYKCKVSNKALPAPIEKTISKAKGQPREPQVYTLPPSRDELTKNQVSLTCLVKGFYPSDIAVEWESNGQPENNYKTTPPVLDSDGSFFLYSKLTVDKSRWQQGNVFSCSVMHEALHNHYTQKSLSLSPGK
modifications: synthetic four domain RAGE-Fc IgG fusion protein; synthetic four domain RAGE-Fc IgG fusion protein having signal sequence removed
With B1, the “reduction of S100b induction of TNF-α” value in data set [1] (S100b 0.1 mg/ml FAC, TNF-α ELISA at 24 hours) is reported as about 70%. Moreover, the “S100b induction of TNF-α, result in words” value in data set [1] (S100b 0.1 mg/ml) is reported as “at least as effective”. The “vascular smooth muscle cell proliferation (BrdU-positive nuclei), in words” value in data set [2] (4 days after injury, dose-responsive) is given as “significantly reduced”. The Intimal area in data set [2] (setting [5]) amounted to 0.16 ± 0.02 mm^2; in data set [2] (setting [6]), 0.18 ± 0.04 mm^2. In addition, the Medial area in data set [2] (setting [5]) is listed as 0.11 ± 0.01 mm^2; in data set [2] (setting [6]), 0.11 ± 0.02 mm^2. Further, the “binding to immobilized amyloid-beta (increase in absorbance at 405 nm)” value in data set [3] was “able to bind; also recorded: specifically interact”. In addition, in data set [4], the “stimulation of TNF-α release from cells, in words” value is reported as “does not stimulate TNF-α release”.
